Data from publication PMC11749100, “Blockade of Arf1-mediated lipid metabolism in cancers promotes tumor infiltration of cytotoxic T cells via the LPE-PPARγ-NF-κB-CCL5 pathway”.

Legend:
[1] = biological target: PPARγ (mouse, UniProt P37238 1-505); test: EMSA; Beyotime GS009 EMSA kit; 1 uL protein + 2 uL DNA, 20 min at room temperature; 4% non-denaturing PAGE; buffer, salt and pH not stated; settings: protein: recombinant; blunt
[2] = biological target: p65 (NF-kB) (UniProt Q04207 1-549); test: as above; settings: protein: recombinant; tags: His (pET-21b(+)); blunt
p65 (NF-kB), sequence (Q04207 whole entry): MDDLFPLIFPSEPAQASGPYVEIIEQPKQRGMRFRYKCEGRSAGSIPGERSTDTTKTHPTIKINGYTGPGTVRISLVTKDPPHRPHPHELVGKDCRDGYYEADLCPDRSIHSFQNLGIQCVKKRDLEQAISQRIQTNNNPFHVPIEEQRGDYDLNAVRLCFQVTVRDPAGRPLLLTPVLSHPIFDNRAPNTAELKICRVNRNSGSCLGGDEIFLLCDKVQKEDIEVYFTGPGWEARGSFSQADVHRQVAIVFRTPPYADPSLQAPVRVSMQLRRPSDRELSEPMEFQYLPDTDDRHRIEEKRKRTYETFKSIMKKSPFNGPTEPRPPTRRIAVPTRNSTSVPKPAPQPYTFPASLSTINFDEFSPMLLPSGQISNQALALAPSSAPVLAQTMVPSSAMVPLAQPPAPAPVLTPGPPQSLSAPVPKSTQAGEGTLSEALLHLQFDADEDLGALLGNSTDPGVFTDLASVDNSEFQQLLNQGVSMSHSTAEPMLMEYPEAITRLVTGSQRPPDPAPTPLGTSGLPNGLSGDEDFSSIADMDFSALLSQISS

B1: CCL5 promoter probe (dsDNA)
DNA 1: GTCTTTTGTGGAAACTCCCCAAG
DNA 2: CTTGGGGAGTTTCCACAAAAGAC
- binding result [1]: no binding
- binding result [2]: binds
